Experimental data as given in US20240110004A1 (Northwestern University, priority 2022, published 2024).
Where no end group is shown, it is not given here.

How the values were obtained:
[1] = test system: C57BL/6J mice; experiment: Toxicity in WT C57BL/6J mice (CBC, serum chemistry, H&E pathology); type: in vivo, mouse; conditions: 3 mg/kg with respect to peptide, osmotic subcutaneous pump, 8 weeks, vs saline
Description: FIG. 21: Optical micrographs for toxicity pathology analysis. H&E stained tissue; scale bar: 200 μm.
FIG. 22: Quantification of in vivo results from toxicity pathology analysis as depicted in FIG. 21. Left: pathology severity scoring of H&E stained tissue; Middle: red blood cell count; Right: white blood cell count.
FIG. 23A-23D: Quantification of in vivo results from toxicity pathology analysis as depicted in FIG. 21. FIG. 23A: represents hemoglobin count; FIG. 23B: total protein count; FIG. 23C: ALT (alanine transaminase) count; FIG. 23D: total bilirubin count.
Methods: To assess the toxicity of P1 at the administrable dose in healthy animals, as compared to HV3-TAT at its operating dose, and saline for the negative control, male C57BL/6J mice were assigned to 3 groups (n=3-4 per group) and administered via osmotic subcutaneous pump (Alzet) either HV3-TAT at 3 mg/kg, P1 at 3 mg/kg, all with respect to peptide concentration, or saline as a negative control for 8 weeks. Animals were checked weekly after drug administration for mortality. At sacrifice, blood was collected from each animal via cardiac puncture using a 25-gauge needle while under isoflurane, and then animals were sacrificed and major organs (brain, lung, heart, liver, spleen, spinal cord, and kidneys) collected, weighed, and stored in 10% buffered formalin followed by paraffin embedment.

[2] = test system: WT mice; experiment: P1 treatment of WT littermates in the efficacy study; type: in vivo, mouse
Description: FIG. 31A-31F: For each of FIG. 31A-31F, data is shown reflecting the results of 3 separate studies (i.e., “Batch 1+2+3”) conducted under identical conditions; “veh” refers to the vehicle saline control. For each of FIG. 31A-31C at week 6, WT: n=15; WT+P1: n=15; R62 veh: n=22; R62+HV3-TAT: n=32; and R62+P1: n=16. For each of FIG. 31D-31F at week 6, WT: n=15; WT+P1: n=15; R62 veh: n=17; R62+HV3-TAT: n=30; and R62+P1: n=13. FIG. 31A depicts the average percent of body weight gain for mice subjected to each treatment. From top to bottom, the week 13 data points correspond to: WT+P1 (˜43%); WT (˜39%); R62+P1 (˜1%); R62+HV3-TAT (˜ 4%); and R62 (˜-9%). […]
In vivo Efficacy Methods—Behavioral Analysis: All experiments in animals were conducted in accordance with protocols approved by the Institutional Animal Care and Use Committee of Northwestern University and were performed based on the National Institutes of Health Guide for the Care and Use of Laboratory Animals. […] Accordingly, hindlimb clasping was assessed with the tail suspension test weekly from the ages 7 to 13 weeks in R6/2 mice and WT littermates. Mice were suspended by the tail for 60 sec and the latency for the hindlimbs or all four paws to clasp was recorded using the following score system: clasping over 10 sec, score 3; 5-10 sec, score 2; 0-5 sec, score 1; 0 sec, score 0. […]

[3] = molecular target: pepsin (Sus scrofa, UniProt P00791)
pepsin, sequence (P00791 60-385): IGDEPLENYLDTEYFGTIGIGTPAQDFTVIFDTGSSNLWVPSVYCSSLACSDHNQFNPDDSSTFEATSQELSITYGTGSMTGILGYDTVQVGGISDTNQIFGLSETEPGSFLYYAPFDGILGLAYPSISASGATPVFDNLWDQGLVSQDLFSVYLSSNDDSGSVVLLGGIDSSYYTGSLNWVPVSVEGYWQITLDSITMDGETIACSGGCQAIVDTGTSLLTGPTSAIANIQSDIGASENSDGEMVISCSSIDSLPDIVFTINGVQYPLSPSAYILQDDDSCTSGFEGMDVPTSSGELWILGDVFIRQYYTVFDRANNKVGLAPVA
Description: Stability of PLPs Methods I: For enzyme-induced cleavage experiments, the molar concentration of enzymes was set to 0.1 μM. The concentration of side-chain peptides (having sequence identity of SEQ ID: 1) varied in the range of 50-200 μM. For each enzyme, temperature was set for optimal enzyme activity. In a typical experiment, P1 or HV3-TAT was dissolved in DPBS (pH 7.4) or hydrochloric acid solution (pH 2), to obtain a stock polymer/peptide solution with a peptide concentration of 200 μM. Next, 5 μL of enzyme stock solution (10 μM) was added into 500 μL of the polymer/peptide solution which was subsequently stirred in a preheated oil bath at 37° C. In this case, the molar ratio of peptide substrate to enzymes was 2000:1. During the cleavage, aliquots were taken for HPLC analysis at predetermined time points. Each degradation experiment was repeated three times. Enzyme pretreated P1 was also run on SDS-PAGE and visualized with Coomassie Blue staining.

Row | Substance | complete blood count (CBC) panel and serum chemical analysis [1] | pathology of H&E stained tissues [1] | survival rate ([2]; WT mice) | effects on motor ability, body weight, or neuropathology ([2]; mouse, in vivo) | cleavage by pepsin [3] | percent cleavage by pepsin ([3]; isolated enzyme pepsin, 50 min, 200 μM)
1 | P1: PLP homopolymer having peptide side chains of SEQ ID: 1 (HVLVMSATRR), made by ROMP of norbornene peptide monomer M1 (also: side chains of polynorbornene homopolymer (PLP, ROMP of norbornene peptide monomer)) | no significant difference between groups | No pathological differences | 100% | no significant effects | no cleavage observed | 
2 | peptide sequence HVLVMCAT (HV3) coupled to the cell penetrating, HIV-derived TAT peptide [HV3-TAT, reference compound] | no significant difference between groups | No pathological differences |  |  |  | 100%
